In the series the test system is HBG-4kb ZF (synthetic 6-zinc-finger DNA-binding domain) (synthetic construct). The experiment in a line: EMSA. As to conditions: 10 mM Tris pH 7.5, 50 mM KCl, 5 mM MgCl2, 100 uM ZnCl2, 1 mM DTT, 0.05% Triton X-100, 2.5% glycerol, 100 ng herring sperm DNA per 20 ul, 15 nM Cy5-dsDNA ….

The term Kd denotes the equilibrium constant for the complex coming apart. A lower Kd goes with higher affinity.

In turn, “GAGAACTTAGTGGGGGAAAAAAAGCAGAGAGTATAT (double strand) [HBG-4kb off-target (2-nt mutant)]” displayed a Kd of 90 nM. “GAGAACTTAGTGGGGGAAAGCAAGCAGAGAGTATAT (double strand) [HBG-4kb on-target]” came in with a Kd of 29.5 nM.
